Consider seven molecules from patent US20220073963A1, “COMPOSITIONS AND METHODS FOR DETECTING AND TREATING TYPE 1 DIABETES AND OTHER AUTOIMMUNE DISEASES” (THE JOHNS HOPKINS UNIVERSITY, priority 2018, published 2022).

No end group written: not given here.

The test system of one assay is HLA-DQ8 monomers. The assay can be described thus: Gentle SDS-PAGE assay of peptide binding to DQ8. On the set-up: species or system human. Conditions: 100 μM peptide, 0.5 μM HLA-DQ8 monomers, 37° C., 72 h, pH 5.5. The method, then: Analysis of x-Id peptide binding to DQ8 using gentle SDS-PAGE assay. Gentle SDS-PAGE was used to assess formation of stable complexes between peptides and HLA-DQ8 molecules as previously described (Kim et al., 2013; Sadegh-Nasseri and Germain, 1991). Briefly, 0.5 μM of HLA-DQ8 monomers (provided by NIH tetramer core facility) were treated with thrombin to cleave and remove CLIP peptide. […] Reactions were neutralized, mixed with equal volumes of SDS-PAGE sample buffer containing 0.1% SDS (final concentration) and placed for 15 min at room temperature and run on 10% PAGE gels and silver-stained using a standard protocol.

Assay [1] concerns CD4 T cells. The assay is described as follows: CFSE proliferation assay with soluble peptides. It is filed as cell-based, human. Conditions: soluble peptide, PBMCs from T1D and HC subjects, 7 days. As for the experimental part: FIG. 14A-14B. […] Freshly isolated CFSE-labelled PBMCs from T1D and HC subjects were cultured in the presence or absence of indicated peptides for 7 days. Samples were stained, acquired and analyzed by FlowJo. CD4 T cells were gated and percentage of divided (CFSElow T cells) were determined. […] All peptides induced significant proliferation from diabetogenic subjects compared to HCs. n=4 per subject group, *p<0.05 by Two-way ANOVA with Sidak's multiple comparisons test. […] (FIG. 14B) Overlays show upregulation of CD69 by gated CFSElow T cells (red lines) versus […] non-proliferating (green) CD4 T cells from three subjects and three independent experiments. Numbers indicate percentages (Mean±SEM) of CFSElow CD4 T cells. CFSE proliferation assay. Freshly isolated PBMCs were washed twice with warm (37° C.) 1×PBS to remove serum that affect staining and the cells were resuspended in warm (37° C.) 1×PBS at a density of 1.5-2.0×10^6 cells/ml. Cells were labeled with 1 μM CFSE (eBioscience) for 1-2 min at 37° C. with continuous vortexing. The labeling reaction was quenched by adding chilled complete culture media. […] After 7 days of incubation, cultures were stained as indicated in FIG. legends and proliferation assessed by determining frequency of CFSElow CD4 T cells.

The test system of assay [2] is CD4 T cells. The assay is described as follows: CFSE proliferation assay with immobilized peptide-loaded DQ8 complexes. The assay is classed as cell-based, human. Conditions: PBMCs from DQ8+ T1D subjects, 7 days. As for the experimental part: CFSE proliferation assay. Freshly isolated PBMCs were washed twice with warm (37° C.) 1×PBS to remove serum that affect staining and the cells were resuspended in warm (37° C.) 1×PBS at a density of 1.5-2.0×10^6 cells/ml. Cells were labeled with 1 μM CFSE (eBioscience) for 1-2 min at 37° C. with continuous vortexing. The labeling reaction was quenched by adding chilled complete culture media. CFSE-labeled cells were washed in 1×PBS, resuspended in complete media, and plated into 24-well tissue culture plates (1.5-2.0×10^6 cells/well in 1 mL complete culture medium). […] Alternatively, in a separate experiment, to evaluate the mAb-specific proliferative response, purified mAbR and mAbN (described later in the method) concentration of 2.5 and 5 ug, immobilized into the wells of 24-well plates, and used to stimulate CFSE-labeled PBMCs. CFSE labelled cells without stimulation and with CD3-28 stimulation were taken as specific negative and positive controls respectively. After 7 days of incubation, cultures were stained as indicated in FIG. legends and proliferation assessed by determining frequency of CFSElow CD4 T cells.

The target in assay [3] is CD4 T cells from T1D subjects (antigen receptors not identified). The assay can be described thus: flow cytometry, tetramer staining of CD4 T cells; unstimulated cultures.
For assay [4] the target is unchanged. The assay can be described thus: flow cytometry, tetramer staining of CD4 T cells; x-Id-stimulated cultures, NO AB.
Assay [5] shares this target. The assay can be described thus: flow cytometry, tetramer staining of CD4 T cells; mimotope-stimulated cultures, NO AB.
The target is the same in assay [6]. The assay can be described thus: flow cytometry, tetramer staining of CD4 T cells; x-Id-stimulated cultures, AB BLOCKADE (cells preincubated with x-mAbR).
Assay [7] shares this target. The assay is described as follows: flow cytometry, tetramer staining of CD4 T cells; mimotope-stimulated cultures, AB BLOCKADE (cells preincubated with x-mAbR). On the technique in general: In flow cytometry, cells or beads pass a laser one at a time.
The conditions of assay [8]: Wang et al., 2018; cited from earlier work.

On to “CARQEDTAMVYYFDYW (listed as Homo sapiens) [x-Id]”, for which, in the assay on HLA-DQ8 monomers, the “formation of SDS-stable complexes with soluble DQ8” value (“formation of SDS-stable complexes” for short) is on record as “forming SDS-stable complexes”. For the same molecule, in the assay on CD4 T cells [1], the “proliferation of CD4 T cells (CFSElow)” value was “stimulates CD4 T cells from T1D, but not HC, subjects”.

Consider “CARQRFWSGPLFDYW [h-Id, CDR3 peptide of the IGVH04-b+ IgD+ clonotype from HC #1]”, for which, in the assay on HLA-DQ8 monomers, the “formation of SDS-stable complexes” value is “did not form detectable DQ8 complexes”. In addition, the “stimulation of CD4 T cells (CFSE proliferation and CD69 upregulation)” value in the assay on CD4 T cells [2] is “no significant responses”. The “proliferation of CD4 T cells (CFSElow)” value with CD4 T cells [1] is “did not elicit proliferation of CD4 T cells from either T1D or HCs”.

On to CLIP-TET (peptide-MHC), for which the tetramer+ among CD4 T cells in assay [3] turned out to be 0.07%; in [4] it was 0.1%; in assay [5], 0.09%; in [6] it was 0.08%; in [7], 0.08%.

With “SHLVEALYLVCGERG (listed as Homo sapiens) [native insulin]”, the “formation of SDS-stable complexes” value in the assay with HLA-DQ8 monomers is “did not form detectable DQ8 complexes”. Moreover, the “stimulation of CD4 T cells (CFSE proliferation and CD69 upregulation)” value in the assay on CD4 T cells [2] is “no significant responses”.

As for “SHLVEELYLVAGEEG (listed as Homo sapiens) [superagonist]”, the “potency relative to native insulin B:9-23” value in [8] is on record as “about 1000 fold”.

For “TP-Id: truncated version of x-Id that lacked cysteine and tryptophan at the terminals (ARQEDTAMVYYFDY)”, the “formation of SDS-stable complexes” value in the assay on HLA-DQ8 monomers is listed as “forming SDS-stable complexes”.

Consider CARQEDTAMVYYFDYW (peptide-MHC, part only; not given: HLA-DQ8 alpha and beta chains, human, part only, also: loaded in biotinylated HLA-DQ8 monomers tetramerized with PE-streptavidin) [HLA-DQ8 tetramer loaded with x-Id peptide], for which the tetramer+ among CD4 T cells amounted to 0.56% in assay [3]; 1.03% in assay [4]; 1.07% in [5]; 0.35% in assay [6]; 0.36% in assay [7].
